Measurements: the supplement of paper PMC7125110
± gives the standard error. Variants at the floor of the assay were thinned out.

B1: glmS ribozyme (parent)
chain: AUAAAAGCGCCAGAACUACAGAAAUGUAGUUGACGAGGAGGAGGUUUAUCGAAUUUUCGGCGGAUGCCUCCAAA

Key:
Settings in all cases: with glucosamine-6-phosphate
glucosamine-6-phosphate [1] = variants of: B1; experiment: self-cleavage kobs at 40 uM GlcN6P; higher = faster cleavage; RNA array
Summary of the method: (§1)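 On sequenced MiSeq chips, barcoded ribozyme variants were made in situ by E. coli RNA polymerase and followed at 37 °C through a hybridised Cy3 probe. Glucosamine-6-phosphate was flowed in at 40 μM to 10 mM in HEPES/KCl/Mg(OAc)2 buffer. Exponential fits to normalised per-tile medians gave kobs, and weighted Michaelis–Menten fits gave kcat and KM.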

glucosamine-6-phosphate [2] = variants of: B1; experiment: self-cleavage kobs at 160 uM GlcN6P; higher = faster cleavage; RNA array
Summary of the method: as §1

glucosamine-6-phosphate [3] = variants of: B1; experiment: self-cleavage kobs at 640 uM GlcN6P; higher = faster cleavage; RNA array
Summary of the method: as §1

glucosamine-6-phosphate [4] = variants of: B1; experiment: self-cleavage kobs at 2500 uM GlcN6P; higher = faster cleavage; RNA array
Summary of the method: as §1

glucosamine-6-phosphate [5] = variants of: B1; experiment: self-cleavage kobs at 10000 uM GlcN6P; higher = faster cleavage; RNA array
Summary of the method: as §1

| Variant | self-cleavage kobs at 40 uM GlcN6P (glucosamine-6-phosphate [1]) [s⁻¹] | self-cleavage kobs at 160 uM GlcN6P (glucosamine-6-phosphate [2]) [s⁻¹] | self-cleavage kobs at 640 uM GlcN6P (glucosamine-6-phosphate [3]) [s⁻¹] | self-cleavage kobs at 2500 uM GlcN6P (glucosamine-6-phosphate [4]) [s⁻¹] | self-cleavage kobs at 10000 uM GlcN6P (glucosamine-6-phosphate [5]) [s⁻¹] |
| --- | --- | --- | --- | --- | --- |
| U56A C70U | 0.000377 ± 3.2e-05 | 0.000852 ± 0.00013 | 0.002 ± 0.00026 | 0.0104 ± 0.0022 | 0.0156 ± 0.0024 |
| G43U G63C | < 1e-05 | < 1e-05 | < 1e-05 | < 1e-05 | – |
| G43U U47A | < 1e-05 | – | – | – | – |
| G35U U47A C50G C70U | 0.000411 ± 0.00012 | – | – | – | 0.000429 ± 0.00017 |
| A15U C50G C61A | 0.000142 ± 3e-05 | – | – | – | 7.29e-05 ± 1.7e-05 |
| A6C U47C U54A G59A C70U | < 1e-05 | – | – | – | – |
| A14U G51A U57C G60U A64G U65G | < 1e-05 | – | – | – | – |
| C10U U54A U57C | < 1e-05 | – | – | – | – |
| U45C G60C | < 1e-05 | < 1e-05 | < 1e-05 | < 1e-05 | < 1e-05 |
| A53G C71U | 0.000921 ± 0.00014 | 0.0017 ± 0.00029 | 0.00661 ± 0.0013 | – | 0.0402 ± 0.013 |
| U30C G44A | < 1e-05 | < 1e-05 | < 1e-05 | – | < 1e-05 |
| A39C G62A | < 1e-05 | – | < 1e-05 | – | < 1e-05 |
| G32C G44U U56A | < 1e-05 | – | < 1e-05 | – | < 1e-05 |
| C34G C58U | < 1e-05 | – | < 1e-05 | < 1e-05 | < 1e-05 |
| G32U A36C A53U U54A G63U | < 1e-05 | – | – | – | < 1e-05 |
| A48C C67U C71A | < 1e-05 | – | – | – | < 1e-05 |
| C8U G29C C50A | < 1e-05 | – | < 1e-05 | – | – |
| C16G U31A G35C G40A | < 1e-05 | – | – | < 1e-05 | < 1e-05 |
| G13A U47C C58U C71U | < 1e-05 | – | – | – | 6.08e-05 ± 1.3e-05 |
| A39C C50A | < 1e-05 | < 1e-05 | < 1e-05 | – | < 1e-05 |
| G29U A33U G38C G40A | < 1e-05 | – | – | – | – |
| U30G G62A | < 1e-05 | < 1e-05 | < 1e-05 | – | < 1e-05 |
| A12C U57A G62A | < 1e-05 | – | – | – | – |
| A6U G7A G44U A52U U55C A64U | < 1e-05 | – | < 1e-05 | – | < 1e-05 |

| Variant | self-cleavage kobs at 40 uM GlcN6P (glucosamine-6-phosphate [1]) [s⁻¹] | self-cleavage kobs at 160 uM GlcN6P (glucosamine-6-phosphate [2]) [s⁻¹] | self-cleavage kobs at 640 uM GlcN6P (glucosamine-6-phosphate [3]) [s⁻¹] | self-cleavage kobs at 2500 uM GlcN6P (glucosamine-6-phosphate [4]) [s⁻¹] | self-cleavage kobs at 10000 uM GlcN6P (glucosamine-6-phosphate [5]) [s⁻¹] |
| --- | --- | --- | --- | --- | --- |
| A36C G37A C58G | < 1e-05 | – | – | < 1e-05 | < 1e-05 |
| U30C A33C | < 1e-05 | < 1e-05 | < 1e-05 | – | – |
| G9A G13A | < 1e-05 | < 1e-05 | < 1e-05 | < 1e-05 | – |
| C11G U31G A53C | < 1e-05 | – | – | – | – |
| A42C U49A | < 1e-05 | < 1e-05 | < 1e-05 | < 1e-05 | – |
| C50G C61A A64U | 9.82e-05 ± 1.8e-05 | – | – | – | 0.000113 ± 1.8e-05 |
| A48C A52G | < 1e-05 | < 1e-05 | < 1e-05 | – | – |
| G9C U45C | < 1e-05 | – | – | < 1e-05 | – |
| A48C A52U C70A | < 1e-05 | – | – | – | – |
| U57C G62U U65C | < 1e-05 | – | – | – | < 1e-05 |
| U30C G35A | < 1e-05 | < 1e-05 | < 1e-05 | < 1e-05 | < 1e-05 |
| G37U A39G | < 1e-05 | – | – | < 1e-05 | – |
| G29C G62A | < 1e-05 | – | < 1e-05 | – | – |
| C10U C11G U65G | < 1e-05 | – | – | – | – |
| U31A U45G U54G C58A C61A | < 1e-05 | < 1e-05 | – | – | < 1e-05 |
| G40C G44A | < 1e-05 | < 1e-05 | < 1e-05 | < 1e-05 | – |
| A6G G35U A52C C70G | < 1e-05 | – | – | – | – |
| C34A G37U | < 1e-05 | < 1e-05 | – | < 1e-05 | – |
| A48C G51U C58G | < 1e-05 | – | – | – | – |
| A6U A15U A36G A52C | < 1e-05 | – | – | < 1e-05 | – |
| C10A A48G U49G | < 1e-05 | < 1e-05 | < 1e-05 | < 1e-05 | < 1e-05 |
| U30C U47C | < 1e-05 | < 1e-05 | – | – | – |
| A6C G32C | < 1e-05 | < 1e-05 | – | < 1e-05 | < 1e-05 |
| G9U G29C A33U A64U | < 1e-05 | – | < 1e-05 | < 1e-05 | < 1e-05 |
